Experimental data: publication PMC10570131, “TXNL1 has dual functions as a redox active thioredoxin-like protein as well as an ATP- and redox-independent chaperone” (Redox Biology, 2023)

B1: Thioredoxin-like protein 1 (TXNL1), human, wildtype (natural protein, UniProt O43396 1-289, looked up)
chain: MVGVKPVGSDPDFQPELSGAGSRLAVVKFTMRGCGPCLRIAPAFSSMSNKYPQAVFLEVDVHQCQGTAATNNISATPTFLFFRNKVRIDQYQGADAVGLEEKIKQHLENDPGSNEDTDIPKGYMDLMPFINKAGCECLNESDEHGFDNCLRKDTTFLESDCDEQLLITVAFNQPVKLYSMKFQGPDNGQGPKYVKIFINLPRSMDFEEAERSEPTQALELTEDDIKEDGIVPLRYVKFQNVNSVTIFVQSNQGEEETTRISYFTFIGTPVQATNMNDFKRVVGKKGESH
notes: human TXNL1, open reading frame synthesised codon-optimised for E. coli; N-terminal Trx-fold domain (active site CGPC) and C-terminal PITH domain; also called TRP32; thioredoxin related protein of 32 kDa; not shown: His6, N-terminal, cleaved; GFP, N-terminal, cleaved; SUMO, N-terminal, cleaved
B2: Thioredoxin (Trx1), human (natural protein, UniProt P10599-1 1-105, looked up)
chain: MVKQIESKTAFQEALDAAGDKLVVVDFSATWCGPCKMIKPFFHSLSEKYSNVIFLEVDVDDCQDVASECEVKCMPTFQFFKKGQKVGEFSGANKEKLEATINELV
notes: also called TXN; not shown: His6, N-terminal, cleaved; GFP, N-terminal, cleaved; SUMO, N-terminal, cleaved

Target: the molecule itself
Test: non-reducing SDS-PAGE with Western blot; pure control proteins and chromatography fractions separated on SDS-PAGE without or with DTT, blotted with anti-TXNL1 or anti-Trx1

| Protein | binding result |
| --- | --- |
| B1 | binds |
| B2 | binds |
